{"source": "the supplement of paper PMC12636428"}
{"tested_on": "Saccharomyces cerevisiae", "experiment": "transcriptional activation domain activity (GFP:mCherry ratio, weighted mean of sorted bins, harmonized to initial dataset scale) (arbitrary fluorescence ratio units); higher = stronger transcriptional activation", "conditions": "beta-estradiol 1 µM; induction time 4 h", "how_it_was_run": "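The activation activity of each tile is the read-weighted mean of bin median fluorescence, averaged across its barcodes and mapped linearly onto the scale of the initial dataset. Tiles were fused to an estradiol-inducible synthetic transcription factor, barcoded, and integrated at URA3 in yeast diploids carrying a GFP reporter. Induction used 1 uM beta-estradiol in SC for 4 hours at 30 °C, after which cells were sorted into 8 GFP:mCherry bins, and any tile with fewer than 50 reads was dropped.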"}
{"sequence": "MYPFLFFLSFLLFSSLTFLFSLLSFEFKFFFTFSSSFFFFCLTLCFFCQSFFF", "transcriptional activation domain activity": 36400}
{"sequence": "MDSLFFFFFLLFFFSSCFGFGCSVGLFLFFSVVCNLYFCLLRSYMYLLALLFT", "transcriptional activation domain activity": 51500}
{"sequence": "RGEGDSKSDGKSDGKSEDKAENKGEEAPLVSEKDLVILAEHDLNGRQIKNVIK", "transcriptional activation domain activity": 11000}
{"sequence": "MGCKLIILFSSAMLFLFFSVLFLLLPLFFLSPTTCFLSFWLRLWLLLMVHWGR", "transcriptional activation domain activity": 47600}
{"sequence": "MSLLLCFRVLIFIYPLRVSFLVCSWLYILLFYMSLFHSSVICPHVKMNLFISL", "transcriptional activation domain activity": 43900}
{"sequence": "RGSVESDLIILAMTCTLDILMHLPRSVFYRRQLDLFLWLLRVIPSVKTTNSLN", "transcriptional activation domain activity": 41400}
{"sequence": "ASIPDPAADDDDAEFGGTGEKKPRKRAPKAASGESKNGKAKAVKTEGGASAAG", "transcriptional activation domain activity": 33300}
{"sequence": "VYIYAKTISIVLLTDIYIGKYTYILISLKLLARKKFYNILTNPIFCAHIRLVI", "transcriptional activation domain activity": 55300}
{"sequence": "MWHWLFYLFFSFFLQFLLFLFSFSSSFNFFYFCFPFLLFSVSFFCFCFWFLFF", "transcriptional activation domain activity": 50000}
{"sequence": "LLTGSSALLLPVIWPRLSASLRFPVVLLLPLPYIFTYLCVYPPTPFSPHITPT", "transcriptional activation domain activity": 59300}
{"sequence": "FSLLLDSYIFLFNYCPVRYRYGYLIKDLVQNASRIKSIYTNSDLKFLFSFVWM", "transcriptional activation domain activity": 53800}
{"sequence": "EEEAEPKPAASAPAVAPAADEEGDDQGGDDAAKKKKKKKKGKKDEDAEPAPAA", "transcriptional activation domain activity": 35300}
{"sequence": "LFLLFTFPLLGIFDTCFLTSMLFMALCFLFILLLETSFFFFFSLHPNFISWPY", "transcriptional activation domain activity": 62600}
{"sequence": "LPQMGVPGEPLTLLVEFADMLIEMWHQCLAQRYYGPIYHLVALIVYTLELNAT", "transcriptional activation domain activity": 54200}
{"sequence": "NGGGEQPKGGRGGKSEGGAGNDQGRTNNRGRGDRRGGRGGRDNRGGRGGGSRD", "transcriptional activation domain activity": "< 6570"}
{"sequence": "MVQNWEFFVFFFRFVKFTCVQCGLWCGSPGKLLGLFLFLVCCVLFFFFFFLVE", "transcriptional activation domain activity": "< 6570"}
{"sequence": "FIVHTAELHLFRKQYVGQLYRSQKLLGLLARRPHIARLVTRFGMHAMSAPLFY", "transcriptional activation domain activity": 57100}
{"sequence": "MLQVVVQCFGISLLYFRSGVYLCIFTVHGLGYLFCVFCVFGFHSVWVGLCFFV", "transcriptional activation domain activity": 56600}
{"sequence": "ESPSPDQEEEVEDRENDKPKANTAKKAKPAEGKKTGGRKKAALGGAAKKKAEK", "transcriptional activation domain activity": 43300}
{"sequence": "GFVDVTEQVCGWPMGPWSDDEKLKELGRWNLRNWEEGMEGWILMLYTRFLGWS", "transcriptional activation domain activity": 69700}
{"sequence": "MSQSFLFCPFQCLSLYLFPFCLCFCFPTLAFLSRFSYFILVLFSFLPLLAFVA", "transcriptional activation domain activity": 18500}
{"sequence": "RRRLNYISTRGLPHFFVLLFLIGLLILIVAMRVCLHILSKSSPLFFFLLILGC", "transcriptional activation domain activity": 38500}
{"sequence": "MCVAFSFSSPRFFYSWVMGDFSFFFSFLPPFDSFFSFSLGSIMYPLFLGIFFF", "transcriptional activation domain activity": 59400}
{"sequence": "APAAADEEQEGESKNKKKKKKKGAKKAEADEEAVEAAAPAKGKKKGGAPIAAL", "transcriptional activation domain activity": 54700}
{"sequence": "VLDLVCIKFLSLFTFYIFLLLYLSIFQIICFFLFPFLFLFFPSCPLRRFLFSY", "transcriptional activation domain activity": 47000}
{"sequence": "SSRYIQTSTLTRLLLTYRQWIFVVVYSHLLLLDHSSQIWWRWMNIFFTLVIWS", "transcriptional activation domain activity": 62300}
{"sequence": "LLTEHFLLRVFAVFTAYIVELWMLKVAYLGYYFQLRQYLSEKSRMIYIGTCVY", "transcriptional activation domain activity": 63300}
{"sequence": "MFTRYLLLLLFAPLIYILGFFAASLSTHQPDYFYTWTRDSALVAQTNDTLLHD", "transcriptional activation domain activity": 30900}
{"sequence": "LLIFVLFYYNCMKILYGIFGFIILGVLGLFGYYISSMLLWLYNVPFDYISFFF", "transcriptional activation domain activity": 68500}
{"sequence": "VLLLVIFACAIVYLKSLVYSPSPFPTLIACYMSHSNRRYLSVMYGVVLVHQIT", "transcriptional activation domain activity": 75600}
{"sequence": "MSSSPTTGTSQDVQNRTVFTSRRRTAVACTNCRRRKLRCIPARVEEPATGPCA", "transcriptional activation domain activity": 35800}
{"sequence": "DDERERKRAKGDKDEECHKEPKRSARDKQEESSTTRNSRQSKKPKTAAQPEAK", "transcriptional activation domain activity": 7230}
{"sequence": "TFLGFFDFTCSSPSYVIHHLDITNLFVSPFLFFPSFPSIFIFCWNILILGLFE", "transcriptional activation domain activity": 57300}
{"sequence": "YADWLLEPEQNNGTWVSDVLWPAINLDLQWISLHWNESSWDLWWPPVWGGSYW", "transcriptional activation domain activity": 52100}
{"sequence": "MVINGLPWLVALSIPFTFLASLTHSSWHPLLLRSHSTWRLYWWLVLVLRMHMT", "transcriptional activation domain activity": 41500}
{"sequence": "SLLVWEFCLRHPEVRDVCDLGQMIFWNNKGAFYFTAFMFILNNTFIQGLHCLV", "transcriptional activation domain activity": 72600}
{"sequence": "AEEGEEGRRKKGASKARSESGRSRIGGKRKEGEGEREGDEGRKKKRKKNKEKE", "transcriptional activation domain activity": 32800}
{"sequence": "NVLYSRLSILSSLITLSWFLTAHILEYTSIHTCRFSSPHIWWLTFGILCIMYL", "transcriptional activation domain activity": 51600}
{"sequence": "MALLSQVARLLGSFLCVAISCFGRLALLFLWLILAYFTFWSFFSGNLPICFCL", "transcriptional activation domain activity": 59300}
{"sequence": "GAVAADVEDEDADDALEEPAKGKKRKSKVEEDESEAEKPAKKGRGRKSTETNG", "transcriptional activation domain activity": 42600}
{"sequence": "NESGPGAADEDAEEDDEESDEDGAGRKRKKPKVEPKPKPERKAPAPAPADGEK", "transcriptional activation domain activity": "< 6570"}
{"sequence": "PKEDVQPEPEAQPAESVEAAPASEEQAPVEKTEEAPATEETEESRPSPPAARL", "transcriptional activation domain activity": 37600}
